Drawing on patent publication US20120107932A1, “PRRS-VIRUS RECEPTOR AND ITS INHIBITOR” (priority 2009, published 2012), this text covers OD value (450 nm) and CPE caused by PRRSV on Marc-145 and PAM cells, blocker for two substances.

The target of experiment [1] is non-muscle myosin heavy chain II-A (NMHC II-A) protein. As to the kind of experiment: indirect ELISA, antigen coated 200 ng/well, serum dilution 10^-5; control of the anti-polypeptide (Seq ID No: 4) group.
Experiment [2] has as its target NMHC II-A artificial polypeptide (Seq ID No: 4). The description is as above.
The target of experiment [3] is non-muscle myosin heavy chain II-A (NMHC II-A) protein. In words: indirect ELISA, antigen coated 200 ng/well, serum dilution 10^-2; control of the anti-polypeptide (Seq ID No: 3) group. A general note: In an ELISA, binding on a coated surface is turned into a signal by an enzyme label.
For experiment [4], the target named is NMHC II-A artificial polypeptide (Seq ID No: 3). The experiment is described as above.
The target of experiment [5] is non-muscle myosin heavy chain II-A (NMHC II-A) protein. As to the kind of experiment: indirect ELISA, antigen coated 200 ng/well, serum dilution 10^-4; control of the anti-polypeptide (Seq ID No: 4) group.
The target of experiment [6] is NMHC II-A artificial polypeptide (Seq ID No: 4). The experiment is described as above.
The target in experiment [7] is non-muscle myosin heavy chain II-A (NMHC II-A) protein. In words: indirect ELISA, antigen coated 200 ng/well, serum dilution 10^-5; control of the anti-polypeptide (Seq ID No: 3) group.
Experiment [8] addresses NMHC II-A artificial polypeptide (Seq ID No: 3). Described as above.
The target in experiment [9] is non-muscle myosin heavy chain II-A (NMHC II-A) protein. In words: indirect ELISA, antigen coated 200 ng/well, serum dilution 10^-2; control of the anti-polypeptide (Seq ID No: 2) group.
The target of experiment [10] is NMHC II-A artificial polypeptide (Seq ID No: 2). The description is as above.
The target of experiment [11] is non-muscle myosin heavy chain II-A (NMHC II-A) protein. In words: indirect ELISA, antigen coated 200 ng/well, serum dilution 10^-2; control of the anti-polypeptide (Seq ID No: 4) group.
Experiment [12] concerns the target NMHC II-A artificial polypeptide (Seq ID No: 4). The experiment is described as above.
Experiment [13] has as its target non-muscle myosin heavy chain II-A (NMHC II-A) protein. In words: indirect ELISA, antigen coated 200 ng/well, serum dilution 10^-3; control of the anti-polypeptide (Seq ID No: 4) group.
Experiment [14] concerns the target NMHC II-A artificial polypeptide (Seq ID No: 4). The description is as above.
The target in experiment [15] is non-muscle myosin heavy chain II-A (NMHC II-A) protein. In words: indirect ELISA, antigen coated 200 ng/well, serum dilution 10^-3; control of the anti-polypeptide (Seq ID No: 3) group.
In experiment [16] the target is NMHC II-A artificial polypeptide (Seq ID No: 3). Described as above.
Experiment [17] has as its target non-muscle myosin heavy chain II-A (NMHC II-A) protein. In words: indirect ELISA, antigen coated 200 ng/well, serum dilution 10^-5; control of the anti-polypeptide (Seq ID No: 2) group.
The target of experiment [18] is NMHC II-A artificial polypeptide (Seq ID No: 2). The experiment is described as above.
Experiment [19] has as its target non-muscle myosin heavy chain II-A (NMHC II-A) protein. In words: indirect ELISA, antigen coated 200 ng/well, serum dilution 10^-4; control of the anti-polypeptide (Seq ID No: 2) group.
Experiment [20] has as its target NMHC II-A artificial polypeptide (Seq ID No: 2). Described as above.
Experiment [21] has as its target NMHC II-A artificial polypeptide (Seq ID No: 3). As to the kind of experiment: indirect ELISA, antigen coated 200 ng/well, serum dilution 10^-4; control of the anti-polypeptide (Seq ID No: 3) group.
The target of experiment [22] is non-muscle myosin heavy chain II-A (NMHC II-A) protein. In words: indirect ELISA, antigen coated 200 ng/well, serum dilution 10^-3; control of the anti-polypeptide (Seq ID No: 2) group.
In experiment [23] the target is NMHC II-A artificial polypeptide (Seq ID No: 2). The experiment is described as above.
A further experiment deals with PRRS virus (PRRSV). In words: cell-based or functional assay.

“Negative control sera (mouse serum before immunization) (antibody)”: the OD value (450 nm) in [1] came out at 0.07 OD; in experiment [2], 0.09 OD; in experiment [3] it was 0.12 OD; in experiment [4], 0.11 OD; in experiment [5], 0.08 OD; in experiment [6], 0.1 OD. Besides, the OD value (450 nm) in [7] worked out at 0.07 OD; in experiment [8] it was 0.08 OD; in experiment [9], 0.13 OD; in [10], 0.12 OD; in experiment [11], 0.14 OD; in experiment [12], 0.15 OD. Moreover, the OD value (450 nm) in experiment [13] was found to be 0.11 OD; in experiment [14], 0.13 OD; in experiment [15] it was 0.11 OD; in experiment [16], 0.13 OD; in experiment [17] it was 0.08 OD; in [18], 0.07 OD. Further, the OD value (450 nm) in experiment [19] worked out at 0.1 OD; in experiment [20], 0.08 OD; in [21], 0.09 OD; in experiment [22], 0.1 OD; in [23] it was 0.11 OD.

As to “non-muscle myosin heavy chain II-A (NMHC II-A) protein (receptor)”, in the experiment with PRRS virus (PRRSV), the CPE caused by PRRSV on Marc-145 and PAM cells, blocker at 1 µg/well ('+' means CPE in 25% cells) (% cells with CPE) came to 25.
